B1: TIP-TIP-IgG fusion protein (two copies of the TIP-1 PDZ domain fused to the hIgG constant region) (Fc fusion)
chain: QRVEIHKLRQGENLILGFSIGGGIDQDPSQNPFSEDKTDKGIYVTRVSEGGPAEIAGLQIGDKIMQVNGWDMTMVTHDQARKRLTKRSEEVVRLLVTRQSLQKQRVEIHKLRQGENLILGFSIGGGIDQDPSQNPFSEDKTDKGIYVTRVSEGGPAEIAGLQIGDKIMQVNGWDMTMVTHDQARKRLTKRSEEVVRLLVTRQSLQK
notes: domain: PDZ domain; not shown: hIgG constant region of the CD5gamma or PEAK10 vector

Where “and” joins values, the source holds several entries; their conditions need not be identical. Equal values may be shown once.

For one assay, the target named is HPV16 E6 C-terminal PDZ ligand (PL) peptide, biotinylated (human papillomavirus type 16) (UniProt P03126). Briefly: Matrix/G assay ELISA; E6 peptide titrated on GST-PDZ.
In the case of GST-SAST2 PDZ domain 1, the EC50 was determined as 1200 nM.
Same read-out and setting: in the case of “GST-Magi3 PDZ domain 1 (from UniProt Q5TCQ9 18-106)” it was 310 nM.

The next assay has as its target HPV E6 #16 PDZ ligand peptide (C-terminal peptide of the E6 protein of HPV 16) (HPV 16) (UniProt P03126). Briefly: G assay ELISA, immobilised GST-PDZ, biotin peptide 10 uM.
As for GST-INADL PDZ domain 3, the Ave OD came out at 0.485 A450 nm and the OD S/N (ratio to GST-only well) worked out at 1.86.
Consider GST-NSP #268.2 PDZ domain 1, for which the Ave OD was 0.724 A450 nm and the OD S/N (ratio to GST-only well) came out at 2.58.
The matching figures for GST-NeDLG PDZ domain 1: 0.516 A450 nm and 1.98.
The matching figures for GST-PDZK1 PDZ domain 3: 0.5 A450 nm and 1.92.
The matching figures for GST-KIAA1526 #126.1 PDZ domain 2: 0.463 A450 nm and 1.87.
With GST-TAX IP 2 PDZ domain 1, the Ave OD is 0.508 A450 nm and 0.478 A450 nm; the OD S/N (ratio to GST-only well) is 2.37 and 2.48.
With GST-MAGI 1 PDZ domain 5, the Ave OD turned out to be 0.541 A450 nm and the OD S/N (ratio to GST-only well) was 3.12.
The matching figures for GST-PDZ-73 PDZ domain 2: 0.561 A450 nm and 1.95.

A further assay has as its target HPV16 E6 C-terminal PDZ ligand (PL) peptide, biotinylated (human papillomavirus type 16) (UniProt P03126). Nature of the assay: G assay ELISA; immobilised GST-PDZ, biotin-peptide 10 uM.
Consider GST-MAGI1 PDZ domain 5, for which the Ave OD turned out to be 0.432 A450 nm and the OD S/N (ratio vs GST only) came out at 1.77.
GST-NSP PDZ domain 1, clone #42.5: the Ave OD is 0.416 A450 nm and the OD S/N (ratio vs GST only) stood at 1.95.
Take “GST-EZRIN Binding Protein 50 PDZ domain 1, clone #341.1”: the Ave OD is 0.43 A450 nm and the OD S/N (ratio vs GST only) worked out at 1.65.
The corresponding values for GST-DLG-6 PDZ domain 1, clone #333.1 are 0.349 A450 nm and 2.04.
Take GST-Densin 180 PDZ domain 1: the Ave OD was 0.42 A450 nm and 0.35 A450 nm; the OD S/N (ratio vs GST only) is 1.96 and 1.82.
Take “GST-Magi2 PDZ domain 3 (from UniProt Q86UL8 774-865)”: the Ave OD is 0.416 A450 nm and 0.359 A450 nm; the OD S/N (ratio vs GST only) was 1.98 and 1.65.
On to GST-PAR3 PDZ domain 3, clone #278.1, for which the Ave OD was found to be 0.352 A450 nm and the OD S/N (ratio vs GST only) was determined as 1.8.
The corresponding values for GST-AF6 PDZ domain 1 are 0.444 A450 nm and 1.8.

A further assay has the same target. Briefly: G assay ELISA; E6 PL peptide titrated on constant GST-PDZ.
Consider GST-SAST2 PDZ domain 1, for which the EC50 was found to be 1200 nM.
Still for that read-out and setting: in the case of “GST-Magi3 PDZ domain 1 (from UniProt Q5TCQ9 18-106)” it was 310 nM.

For the next assay, the target named is T1, GST-HPV11E6 fusion protein (full length E6 of HPV11) (human papillomavirus 11, UniProt P04019 1-150).
T1 construct: domain: full length protein
Briefly: modified ELISA: GST-E6 coated at 5 ug/ml, TIP-TIP-IgG supernatant, anti-hIgG-HRP.
As for B1, the binding result is “no binding”.

For the origin of these results see patent US20070099199A1 (published 2007).
